According to US20190381088, “ANTI-IL-17 APTAMER HAVING IMPROVED RETENTION IN BLOOD” (ZENYAKU KOGYO CO., LTD., published 2019):

B1: Example sequence 1 (aptamer No. 8) PEG-linker-spacer-brancher (mixed)
mixed: GGGUAGCCGGAGGAGTCAGTAAUCGGUACCC
modifications: 2'-OMe at 1-4,7,8,10,13,14,23-26,28; 2'-F at 11,17,18,27; PS at g6; DNA at A5,G9,T16,T20,C29-C31; rest 2'-OH RNA; 3' idT (stated for in vivo tests); 5' symmetrical brancher with spacer + ssH amino linker + 2 x 40 kDa branched PEG (80 kDa total)
B2: Example sequence 4 (aptamer No. 93) nucleic acid alone (mixed)
mixed: B1 mixed
modifications: 2'-OMe at 1-4,7,8,10,13,14,23-26,28-31; 2'-F at 11,17,18,27; PS at g6; DNA at A5,G9,T16,T20; rest 2'-OH RNA; no PEG
B3: Example sequence 4 (aptamer No. 93) PEG-linker-spacer-brancher (mixed)
mixed: B1 mixed
modifications: 2'-OMe at 1-4,7,8,10,13,14,23-26,28-31; 2'-F at 11,17,18,27; PS at g6; DNA at A5,G9,T16,T20; rest 2'-OH RNA; 3' idT (stated for in vivo tests); 5' symmetrical brancher with spacer + ssH amino linker + 2 x 40 kDa branched PEG (80 kDa total)
B4: Example sequence 1 (aptamer No. 8) nucleic acid alone (mixed)
mixed: B1 mixed
modifications: 2'-OMe at 1-4,7,8,10,13,14,23-26,28; 2'-F at 11,17,18,27; PS at g6; DNA at A5,G9,T16,T20,C29-C31; rest 2'-OH RNA; no PEG
B5: Example sequence 2 (aptamer No. 48) PEG-linker-spacer-brancher (mixed)
mixed: B1 mixed
modifications: 2'-OMe at 1-4,7,8,10,13,14,23-26,28; 2'-F at 17,27; DNA at A5,G9,T16,T20,C29-C31; rest 2'-OH RNA; 3' idT (stated for in vivo tests); 5' symmetrical brancher with spacer + ssH amino linker + 2 x 40 kDa branched PEG (80 kDa total)

What was measured:
IL-17 (human IL-17) [1] = biological target: T1, IL-17 (human IL-17) (Homo sapiens, UniProt Q16552 Q16552:24-155); experiment: cell_activity; inhibition of IL-17 (10 ng/mL) + mouse TNF induced IL-6 in NIH3T3 cells, 37 C preincubation 30 min; conditions: chain copies: 2 inferred (homodimer)
T1 sequence: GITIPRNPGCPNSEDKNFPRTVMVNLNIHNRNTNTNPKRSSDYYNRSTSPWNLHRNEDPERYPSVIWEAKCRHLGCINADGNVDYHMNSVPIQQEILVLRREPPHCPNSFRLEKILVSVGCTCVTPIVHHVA
Procedure: (§1) Human IL-17 (10 ng/mL) and aptamers diluted to various concentrations were pre-incubated at 37° C. for 30 min, and added to NIH3T3 cells (ATCC, CRL1658, 1.25×10⁵ cell/mL) together with mouse TNF (2 ng/mL). Then, after incubation for 24 hr, the culture supernatant was collected. After preservation at −70° C., the amount of produced IL-6 was measured by the ELISA method. The IL-17 inhibitory action of each aptamer was evaluated from the amount of produced IL-6.
A microtiter plate for ELISA was coated with rat anti-mouse IL-6 antibody (BD Biosciences, 2 μg/mL; 100 μL/well) diluted with PBS, and incubated at 4° C. overnight. The next day, the microtiter plate was washed 3 times with PBS/0.05% Tween 20, and blocked with PBS/1% BSA (200 μL/well) at room temperature for 2 hr. Then, the plate was washed 3 times with PBS/0.05% Tween 20. Recombinant mouse IL-6 (BD Biosciences; 100 μL/well) serially diluted with PBS/1% BSA/0.05% Tween 20 or culture supernatants (100 μL/well) were added to the plate. After incubation at room temperature for 2 hr, the plate was washed 3 times with PBS/0.05% Tween 20. Then, 100 μL/well of biotin conjugated rat anti-mouse IL-6 antibody (BD Biosciences) was added at final dilution of 1/500, and the mixture was reacted at room temperature for 1 hr. After washing 3 times with PBS/0.05% Tween 20, 100 μL/well of alkaline phosphatase conjugated streptavidin was added at final dilution of 1/1000. After 30 min at room temperature, the plate was again washed 4 times with PBS/0.05% Tween 20, and a substrate (1-Step PNPP; Thermo Fisher Scientific Inc; 100 μL/well) was added. After 15 min, aqueous sodium hydroxide solution (2N: 50 μL/well) was added to stop the reaction, and the plate was read on a microtiter reader (Bio-Rad) by using a 405 nm filter.

IL-17 (human IL-17) [2] = biological target: T1, IL-17 (human IL-17); experiment: cell_activity; nucleic acid alone; IL-6 release from NIH3T3 cells; conditions: chain copies: 2 inferred (homodimer)
Procedure: Aptamers in which a brancher, a spacer, an ssH amino linker were added to the nucleic acid sequences of Example sequences 1, 2, 3 and 4, and 40 kDa 2 branched PEG was added (total PEG molecular weight: 80 kDa each) were synthesized (FIG. 1 structure 1). The IL-17 neutralization activity of each aptamer was measured along with the aptamer having the original nucleic acid sequence alone. The evaluation was based on the measurement of the amount of IL-6 released in the cultured cells by the stimulation of IL-17 and TNFα to the cells.
as §1
A microtiter plate for ELISA was coated with rat anti-mouse IL-6 antibody (BD Biosciences, 2 μg/mL; 100 μL/well) diluted with PBS, and incubated at 4° C. overnight. The next day, the microtiter plate was washed 3 times with PBS/0.05% Tween 20, and blocked with PBS/1% BSA (200 μL/well) at room temperature for 2 hr. Then, the plate was washed 3 times with PBS/0.05% Tween 20. […]

Binder | IC50 (IL-17 (human IL-17) [1]) | IC50 (IL-17 (human IL-17) [2])
B1 | 0.041 nM | 
B2 |  | 0.123 nM
B3 | 0.06 nM | 
B4 |  | 0.223 nM
B5 | 0.18 nM | 
